Article PMC12368639

Target: Cluster of Differentiation 147 (CD147) (human)
Assay: single-molecule force spectroscopy (AFM)

Cluster of Differentiation 147 (CD147) (human), sequence (P35613 other isoform, or with tags, fused parts or gaps): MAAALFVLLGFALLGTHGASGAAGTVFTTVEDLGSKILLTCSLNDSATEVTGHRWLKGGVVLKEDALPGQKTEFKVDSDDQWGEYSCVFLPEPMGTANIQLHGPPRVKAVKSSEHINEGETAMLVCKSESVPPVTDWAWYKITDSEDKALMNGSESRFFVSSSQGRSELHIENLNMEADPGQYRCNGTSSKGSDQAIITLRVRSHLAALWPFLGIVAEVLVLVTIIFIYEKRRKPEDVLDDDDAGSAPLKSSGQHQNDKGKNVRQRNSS

Substance “Full length Spike Protein (SARS-CoV-2) (from UniProt P0DTC2) (natural protein)” has a mean adhesion force of 41.9 pN, a mean adhesion force (tip contact time 0 s) of 38.8 pN and a mean adhesion force at 37 °C of 46.2 pN.
